± gives the uncertainty stated by the source.
Assay: protein stability index of a GFP-peptide fusion (yeast GPS) (PSI 1-4); higher = more stable; sorted into four equal gates, so the index is relative within each strain
Summary of the method: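 Yeast carrying a pooled library were grown to mid-log phase in leucine-free medium. Each library plasmid expresses Cherry and has a tiled 17-residue yeast protein peptide fused downstream of GFP. Cells were sorted into four equal gates by GFP/Cherry ratio, and plasmids from each gate were PCR-amplified, Illumina-sequenced and assigned to strains by barcode. Summing, across gates, the read frequency times the gate number gave each peptide's protein stability index.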

Row | Sequence | protein stability index (doa10∆) | protein stability index (pdr5∆) | protein stability index (san1∆) | protein stability index (ubr1∆)
1 | LEGTRVSLEERTKNLVS [SMC4] | 3.45 ± 0.09 | 3.42 ± 0.075 | 3.34 ± 0.048 | 3.35 ± 0.08
2 | LEKISSSNKDLEDEKMK [SMC4] | 3.31 ± 0.079 | 3.15 ± 0.093 | 3.23 ± 0.038 | 3.26 ± 0.077
3 | LEKLIFDMTNHYNDSQQ [SRB8] | 2.82 ± 0.053 | 2.23 ± 0.045 | 2.47 ± 0.065 | 2.51 ± 0.036
4 | LELMDSKKTGQFNAQGV [POP1] | 3.54 ± 0.12 | 3.6 ± 0.077 | – | 3.48 ± 0.092
5 | LEMSTEDFVKLAPARVR [RPS15] | 2.83 ± 0.13 | 3.05 ± 0.1 | 3.07 ± 0.065 | 2.78 ± 0.07
6 | LENFKSYAGKQVVGPFH [SMC4] | 3.04 ± 0.076 | 3.2 ± 0.19 | 2.98 ± 0.11 | 2.98 ± 0.1
7 | LENMPHPWEQAKEVKVL [PRP8] | 2.7 ± 0.23 | 2.9 ± 0.17 | 3.09 ± 0.1 | 2.94 ± 0.093
8 | LEQEYRLILLLNHRNKN [RMP1] | 1.28 ± 0.045 | 1.18 ± 0.05 | 1.19 ± 0.084 | 1.13 ± 0.046
9 | LEQIQVQLKDANSQIQA [YIL149C/MLP2] | 2.55 ± 0.12 | 2.41 ± 0.27 | 2.45 ± 0.21 | 2.43 ± 0.15
10 | LEQQKQPTGLLKGLNGF [YMR153W/NUP53] | 3.53 ± 0.12 | 3.46 ± 0.11 | 3.18 ± 0.11 | 3.34 ± 0.074
11 | LERARDVNIVNRRLVYS [YCG1] | 2.44 ± 0.27 | – | 1.72 ± 0.29 | 1.66 ± 0.13
12 | LERTAIELKTDWVRFLA [RPN1] | 1.58 ± 0.13 | 1.49 ± 0.098 | 1.55 ± 0.11 | 1.17 ± 0.067
13 | LERYVKRCMDDLNPLKT [RPO31] | 3.08 ± 0.078 | 3.15 ± 0.058 | 3.27 ± 0.043 | 3.16 ± 0.041
14 | LESGKETALEFLEKEKQ [SMC4] | 3.62 ± 0.12 | 3.46 ± 0.11 | 3.17 ± 0.071 | 3.48 ± 0.079
15 | LESLKPIDDTMTLLTDS [MTW1] | 3 ± 0.092 | 2.95 ± 0.054 | 3.04 ± 0.058 | 2.98 ± 0.046
16 | LEVANDLQLLYVESDED [IRR1] | 1.43 ± 0.13 | 1.21 ± 0.091 | 1.42 ± 0.2 | 1.13 ± 0.046
17 | LEWNMANLLFKKEKLKQ [RPC82] | 2.13 ± 0.11 | 1.45 ± 0.049 | 1.38 ± 0.13 | 1.37 ± 0.082
18 | LFAFNGVARNFHFAIEQ [SIN4] | 3.01 ± 0.14 | 2.8 ± 0.079 | 2.55 ± 0.069 | 3.06 ± 0.064
19 | LFAREIAKSQDKKSCSV [DPB4] | 3.33 ± 0.064 | 3.24 ± 0.073 | 3.14 ± 0.067 | 3.22 ± 0.04
20 | LFGEKSILGKFCPIVEE [YCS4] | 1.55 ± 0.041 | 1.74 ± 0.052 | 1.57 ± 0.11 | 1.73 ± 0.039
21 | LFGENDTSTQAYEEEEE [NUT1] | 3.34 ± 0.09 | 3.41 ± 0.095 | 3.5 ± 0.057 | 3.34 ± 0.075
22 | LFGSKPQGSTTNGGLFG [YGR119C/NUP57] | 3.38 ± 0.086 | 3.47 ± 0.067 | 3.43 ± 0.045 | 3.28 ± 0.037
23 | LFKGTGFNSWEGLFWEK [PRP8] | 2.44 ± 0.12 | 2.42 ± 0.13 | 3.36 ± 0.13 | 1.64 ± 0.04
24 | LFLTAPDSCNMQEKAAH [YCS4] | – | 2.67 ± 0.24 | 2.86 ± 0.12 | 2.92 ± 0.11
25 | LFPEQQNKEIKAERVED [RPL6A] | 3.61 ± 0.11 | 3.14 ± 0.1 | 3.59 ± 0.065 | 3.35 ± 0.056
26 | LFPIVKKHGKTDYFLPK [YJL039C/NUP192] | 2.46 ± 0.2 | 2.66 ± 0.11 | 2.58 ± 0.15 | 2.08 ± 0.062
